Results published in patent CN110642952A (SHANGHAI INST OF BIOLOGICAL PRODUCTS CO LTD, dated 2020).

Legend:
HER3 = biological target: T1, HER3 (human, UniProt P21860 20-643, limits assumed); experiment: ProteOn XPR36 Protein Interaction Array System (SPR)
T1 construct: also called HER3抗原; HER3蛋白

HER3-ECD融合蛋白 = biological target: T2, HER3-ECD融合蛋白 (human); experiment: competition ELISA: Trx-HRG coated (10 μg/ml), HER3-ECD fusion protein 1 μg/ml pre-incubated with antibody, anti-hGH detection
T2 construct: also called HER3-ECD fusion protein

T1 sequence (P21860 20-643 limits assumed): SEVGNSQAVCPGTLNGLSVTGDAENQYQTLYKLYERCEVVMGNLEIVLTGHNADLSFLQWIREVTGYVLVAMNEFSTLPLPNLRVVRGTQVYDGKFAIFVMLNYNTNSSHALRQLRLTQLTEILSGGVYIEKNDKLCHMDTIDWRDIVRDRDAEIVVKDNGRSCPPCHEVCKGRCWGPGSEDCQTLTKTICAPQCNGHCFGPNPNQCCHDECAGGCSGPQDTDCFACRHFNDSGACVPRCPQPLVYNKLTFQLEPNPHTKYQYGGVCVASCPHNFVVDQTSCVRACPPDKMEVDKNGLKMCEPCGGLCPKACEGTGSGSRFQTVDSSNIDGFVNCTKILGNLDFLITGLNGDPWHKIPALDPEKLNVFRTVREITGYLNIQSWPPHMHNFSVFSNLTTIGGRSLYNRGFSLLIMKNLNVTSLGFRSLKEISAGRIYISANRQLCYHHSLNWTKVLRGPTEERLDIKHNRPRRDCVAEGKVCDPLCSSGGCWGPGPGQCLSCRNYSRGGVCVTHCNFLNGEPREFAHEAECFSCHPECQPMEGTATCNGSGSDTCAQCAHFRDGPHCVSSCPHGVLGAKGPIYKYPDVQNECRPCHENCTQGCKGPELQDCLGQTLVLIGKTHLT

Row | Kd (HER3) [nM] | IC50 (HER3-ECD融合蛋白) [nM] | Binder
1 | 5.83 | 2.8 | HER3鼠源单克隆抗体1050 (antibody, V domains shown, Mouse monoclonal antibody from hybridoma ascites, purified on protein G; also called HER3抗体1050) VH: QVQLQQSGPELVKPGASVKISCKASGYSFTSYYIHWVKQRPGQGLEWIGWIFPGSGHTKCNENFKAKATLTADTSSSTAYMQLSSLTSEDSAVYFCARSRDYYGSNAVDYWGQGTSVTVSS VL: DIVMTQSPSSLTVTAGEKVTMSCKSSQSLLNSGNQKNYLTWYQQKPGQPPKLLIYWASTRESGVPDRFSGSGSGTDFTLTISSVQAEDLAVYYCQNDYSYPYTFGGGTKLEIKR
2 | 0.525 | 2.3 | HER3鼠源单克隆抗体1044 (antibody, V domains shown, Mouse monoclonal antibody from hybridoma ascites, purified on protein G; also called HER3抗体1044) VH: EVQLQQSGTELMKPGASVKISCKATGGTFSNYWIDWVKQRPGHGLEWIGEILPGSGGTDYNEKFKGKATFTADTSSNTAYMQLSSLTSEDSAVYYCARDDYDVFAYWGQGTLVTVSS VL: DIVMTQAAFSNPVTLGTSASISCRSSKSLLHSNGITYLYWYLQKPGQSPQLLIYQMSNLASGVPDRFSSSGSGTDFTLRISRVEAEDVGVYYCAQNLELPWTFGGGTKLEIKR

Continued, binder first:

Row | Binder | Kd (HER3) [nM] | IC50 (HER3-ECD融合蛋白) [nM]
3 | HER3鼠源单克隆抗体993 (antibody, V domains shown, Mouse monoclonal antibody from hybridoma ascites, purified on protein G; also called HER3抗体993) VH: EVKLVESGGGLVKPGGSLKLSCAASGFTFSSYSLSWVRQTPEKRLEWVASITFGGTAYYSDSVKGRFTISRDNARNILYLQMSSLKSEDTAMYYCVRGDGYEDPMDYWGQGTSVTVSS VL: DIVMTQTTVSLAVSLGQRATISCRASESVDSYGKSFMHWYQQKPGQPPKLLIYRASNLESGIPARFSGSGSRTDFTLTINPVEADDVSTYYCQQSNEDPYTFGGGTKLEIR | 0.166 | 0.3
4 | HER3鼠源单克隆抗体927 (antibody, V domains shown, Mouse monoclonal antibody from hybridoma ascites, purified on protein G; also called HER3抗体927) VH: EVQLQQSGPELVKPGASVKISCKASGYSFTSYYIHWVKQRPGQGLEWIGWIFPRSGHTNYNEKFKGKATLTADTSSSTAYMQVSSLTSEDSAVYFCARSRDYYGTNAMDYWGQGTSVTVSS VL: DIVMTQSPSSLTVTAGEKVTMSCKSSQSLFNSGNQKNYLTWYQQKPGQPPKLLIYWASTRESGVPDRFTGSGSGTDFTLTISSVQAEDLAVYYCQNDYSYPYTFGGGTKLEIKR | 4.13 | 1.5
